Paper PMC4618406

Assays:
[1] = ThT fluorescence of gT72/unmodified mixtures, 50 μM total; conditions: glycan gained, control: unmodified α-synuclein
[2] = TEM of fibers from mixtures; conditions: glycan gained; control: unmodified α-synuclein, 50 μM

α-synuclein: 10% α-synuclein(gT72)
other: fibril aggregation [1]: decreases

α-synuclein: 10-50% α-synuclein(gT72) mixtures
structure_or_conformation [2]: no change

α-synuclein: 25% α-synuclein(gT72)
other: fibril aggregation [1]: decreases

α-synuclein: 50% α-synuclein(gT72)
other: fibril aggregation [1]: decreases
